The results in this text go back to paper PMC7835363.

The term stoichiometry N denotes the number of molecules, sites or subunits per partner or assembly.

Test [1] concerns the target Yop1F65Bpa (S. japonicus Yop1 with the photoreactive probe Bpa at F65 in TM2) (Schizosaccharomyces japonicus) (UniProt B6K529). Description: cross-linking + SEC; Yop1F65Bpa irradiated in liposomes, then membranes solubilized in DDM and run on SEC.
Test [2] shares this target. Nature of the test: cross-linking; photo-cross-linking through Bpa; purified protein reconstituted into liposomes of S. cerevisiae lipid extract at a protein:lipid molar ratio of 1:200; UV for 30 min on an ice-cold block; SDS-PAGE and Coomassie-blue staining.
In test [3] the target is Schizosaccharomyces japonicus Yop1, full length, with a C-terminal SBP tag (Schizosaccharomyces japonicus) (UniProt B6K529). Nature of the test: SEC-MALS; in the detergent DDM; 20 mM Tris/HCl pH 7.5, 100 mM NaCl, 0.03% DDM; protein 0.2-1 mg/ml; protein conjugate model. (SEC sorts molecules by how far they enter the pores of the column.)

Where only a bound is given, the exact number is not on record here.

“Yop1F65Bpa (S. japonicus Yop1 with the photoreactive probe Bpa at F65 in TM2) (from UniProt B6K529 1-191) (natural protein)”: the stoichiometry N in test [1] came out at 2. Further, in test [2], the percent of monomers cross-linked into dimers was over 75%. “Schizosaccharomyces japonicus Yop1, full length, with a C-terminal SBP tag (from UniProt B6K529 1-191) (natural protein)”: in test [3], the stoichiometry N is 2.
